Measured values: patent publication US20240117038A1 (Ablynx, published 2024)

B1: A041600025 (VHH)
chain: DVQLVESGGGSVQPGGSLRLSCAASGSIFSSTAMAWYRQAPGKQRDLVAVISTVGITKYADSVKGRFTISRDNAKNTVYLQMNSLRPEDTALYYCTSDARRGWDTRYWGQGTLVTVSSGGGGSGGGSEVQLVESGGGVVQPGGSLRLSCAASGFTFRSFGMSWVRQAPGKGPEWVSSISGSGSDTLYADSVKGRFTISRDNSKNTLYLQMNSLRPEDTALYYCTIGGSLSRSSQGTLVTVSSGGGGSGGGSEVQLVESGGGSVQPGGSLRLSCAASGSIFSSTAMAWYRQAPGKQRDLVAVISTVGITKYADSVKGRFTISRDNAKNTVYLQMNSLRPEDTALYYCTSDARRGWDTRYWGQGTLVTVSSA
notes: Trivalent ISVD construct (two anti-CX3CR1 ISVDs, one anti-albumin ISVD), C-terminal alanine included in the entry; also called 54A12_SO (E1D)-9GS-ALB23002-9GS-54A12_SO-A
B2: A041600034 (VHH)
chain: DVQLVESGGGSVQPGGSLRLSCAASGSIFSSTAMAWYRQAPGKQRDLVAVISTVGITKYADSVKGRFTISRDNAKNTVYLQMNSLRPEDTALYYCTSDARRGWDTRYWGQGTLVTVSSGGGGSGGGSEVQLVESGGGVVQPGGSLRLSCAASGFTFRSFGMSWVRQAPGKGPEWVSSISGSGSDTLYADSVKGRFTISRDNSKNTLYLQMNSLRPEDTALYYCTIGGSLSRSSQGTLVTVSSGGGGSGGGSEVQLVESGGGSVQPGGSLRLSCAASGSIFSSTAMAWYRQAPGKRRDLVAAINTVGVTKYADSVKGRFTISRDNAKNTVYLQMNSLRPEDTALYYCTSDPRRGWDTRYWGQGTLVTVSSA
notes: Trivalent ISVD construct; also called 54A12_SO (E1D)-9GS-ALB23002-9GS-66B02_SO-A
B3: A041600085 (VHH)
chain: DVQLVESGGGLVQPGGSLRLSCAASGSIFSSTAMAWYRQAPGKRRDLVAAISTVGVTKYADSVKGRFTISRDNSKNTVYLQMNSLRPEDTAVYYCTSDPRRGWDTRYWGQGTLVTVSSGGGGSGGGSEVQLVESGGGVVQPGGSLRLSCAASGFTFRSFGMSWVRQAPGKGPEWVSSISGSGSDTLYADSVKGRFTISRDNSKNTLYLQMNSLRPEDTALYYCTIGGSLSRSSQGTLVTVSSGGGGSGGGSEVQLVESGGGLVQPGGSLRLSCAASGSIFSSTAMAWYRQAPGKRRDLVAAISTVGVTKYADSVKGRFTISRDNSKNTVYLQMNSLRPEDTAVYYCTSDPRRGWDTRYWGQGTLVTVSSA
notes: also called 307-9GS-ALB23002-9GS-307 (D1E)-A
B4: A041600035 (VHH)
chain: DVQLVESGGGSVQPGGSLRLSCAASGSIFSSTAMAWYRQAPGKQRDLVAVISTVGITKYADSVKGRFTISRDNAKNTVYLQMNSLRPEDTALYYCTSDARRGWDTRYWGQGTLVTVSSGGGGSGGGSEVQLVESGGGSVQPGGSLRLSCAASGSIFSSTAMAWYRQAPGKQRDLVAVISTVGITKYADSVKGRFTISRDNAKNTVYLQMNSLRPEDTALYYCTSDARRGWDTRYWGQGTLVTVSSGGGGSGGGSEVQLVESGGGVVQPGGSLRLSCAASGFTFRSFGMSWVRQAPGKGPEWVSSISGSGSDTLYADSVKGRFTISRDNSKNTLYLQMNSLRPEDTALYYCTIGGSLSRSSQGTLVTVSSA
notes: Trivalent ISVD construct (two anti-CX3CR1 ISVDs, one anti-albumin ISVD), C-terminal alanine included in the entry; also called 54A12_SO (E1D)-9GS-54A12_SO-9GS-ALB23002-A
B5: A041600041 (VHH)
chain: DVQLVESGGGSVQPGGSLRLSCAASGSIFSSTAMAWYRQAPGKQRDLVAVISTVGITKYADSVKGRFTISRDNAKNTVYLQMNSLRPEDTALYYCTSDARRGWDTRYWGQGTLVTVSSGGGGSGGGSEVQLVESGGGSVQPGGSLRLSCAASGSIFSSTAMAWYRQAPGKRRDLVAAINTVGVTKYADSVKGRFTISRDNAKNTVYLQMNSLRPEDTALYYCTSDPRRGWDTRYWGQGTLVTVSSGGGGSGGGSEVQLVESGGGVVQPGGSLRLSCAASGFTFRSFGMSWVRQAPGKGPEWVSSISGSGSDTLYADSVKGRFTISRDNSKNTLYLQMNSLRPEDTALYYCTIGGSLSRSSQGTLVTVSSA
notes: Trivalent ISVD construct (two anti-CX3CR1 ISVDs, one anti-albumin ISVD), C-terminal alanine included in the entry; also called 54A12_SO (E1D)-9GS-66B02_SO-9GS-ALB23002-A

Key:
cynomolgus CX3CR1 = target: T1, cynomolgus CX3CR1 (cynomolgus monkey (Macaca fascicularis), UniProt P49238 1-355 (human entry)); assay: competition flow cytometry vs soluble huCX3CL1-AF647 on CHO K1 cyCX3CR1 cells, 30 uM HSA
T1 construct: Overexpressed on CHO K1 cells; also called cyno CX3CR1; cyCX3CR1
T1 chain: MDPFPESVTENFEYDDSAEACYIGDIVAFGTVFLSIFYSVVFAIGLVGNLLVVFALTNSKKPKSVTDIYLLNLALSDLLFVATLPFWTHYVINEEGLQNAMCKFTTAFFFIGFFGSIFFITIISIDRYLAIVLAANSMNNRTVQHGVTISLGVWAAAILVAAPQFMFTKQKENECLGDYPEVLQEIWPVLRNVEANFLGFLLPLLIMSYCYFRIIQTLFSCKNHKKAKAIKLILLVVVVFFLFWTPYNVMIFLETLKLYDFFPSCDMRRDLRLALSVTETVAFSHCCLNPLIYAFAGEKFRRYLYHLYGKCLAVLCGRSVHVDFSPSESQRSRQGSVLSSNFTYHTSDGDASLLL

human CX3CR1 = target: T2, human CX3CR1 (human, UniProt P49238 1-355); assay: flow cytometry on CHO K1 huCX3CR1 cells, 30 uM HSA
T2 construct: Overexpressed on CHO K1, Ba/F3 or HEK293T cells; also called huCX3CR1; hCX3CR1
T2 sequence: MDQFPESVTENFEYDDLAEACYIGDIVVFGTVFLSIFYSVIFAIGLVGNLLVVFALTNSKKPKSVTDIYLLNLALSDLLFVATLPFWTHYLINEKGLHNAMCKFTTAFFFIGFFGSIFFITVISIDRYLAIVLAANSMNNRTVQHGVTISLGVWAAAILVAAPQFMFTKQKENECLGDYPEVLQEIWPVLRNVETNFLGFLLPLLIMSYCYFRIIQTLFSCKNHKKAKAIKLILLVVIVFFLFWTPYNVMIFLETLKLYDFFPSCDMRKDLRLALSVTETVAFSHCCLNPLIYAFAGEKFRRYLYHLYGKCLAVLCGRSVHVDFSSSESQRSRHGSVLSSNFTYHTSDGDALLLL
Protocol: (§1) CHO cells overexpressing human or cynomolgus CX3CR1 were generated using techniques known in the art. Cells were harvested and resuspended in assay buffer (PBS, 2% FBS, 0.05% NaN3) and seeded separately in 384-well Bio-One V-bottom plates (Greiner, Cat. No. 781280), with a total of 2E04 cells seeded per well. After washing, serial dilutions of multivalent ISVD construct (starting from 250 nM, 3-fold dilution, 11 points, diluted in assay buffer), were added and incubated for 4 hours at 4° C. Binding was performed in the presence of 30 uM HSA (Sigma-Aldrich, Cat. No. A8763). Plates were then washed 3 times and cells were incubated with an anti-VHH mouse antibody (3300-fold diluted in assay buffer) for 30 minutes at 4′° C. […] Plates were finally washed 3 times and cells were resuspended in PI (Miltenyi Biotec, Cat. No. 130-093-233, 1000-fold diluted in assay buffer). Cell suspensions were analyzed with iQue Screener PLUS (Intellicyt). EC50s were estimated by dose response modelling. Curves were fit using 4 parameter logistic regression in GraphPad (GraphPad Software Inc.). A purified anti-human CX3CR1 antibody [K0124E1] (BioLegend, Cat. No. 355701/355702) was used as positive control to detect CX3CR1 expression on the cell surface.

human CCR5 = target: T3, human CCR5 (human, UniProt P51681 1-352); assay: flow cytometry on CHO-K1 cells expressing human CCR5
T3 construct: whole, on cells; also called huCCR5
Protocol: as §1
Specificity of the 5 selected multivalent ISVD constructs for the huCX3CR1 receptor was evaluated by performing a FACS binding experiment on CHO-K1 cells expressing human CCR2 or human CCR5. CHO cells overexpressing huCCR2 or huCCR5 were generated using techniques known in the art. Binding of the multivalent ISVD constructs to huCR2 or huCCR5 expressed on the cell surfaces was examined by flow cytometry as described in example 5.1.

T3 sequence (P51681 whole entry): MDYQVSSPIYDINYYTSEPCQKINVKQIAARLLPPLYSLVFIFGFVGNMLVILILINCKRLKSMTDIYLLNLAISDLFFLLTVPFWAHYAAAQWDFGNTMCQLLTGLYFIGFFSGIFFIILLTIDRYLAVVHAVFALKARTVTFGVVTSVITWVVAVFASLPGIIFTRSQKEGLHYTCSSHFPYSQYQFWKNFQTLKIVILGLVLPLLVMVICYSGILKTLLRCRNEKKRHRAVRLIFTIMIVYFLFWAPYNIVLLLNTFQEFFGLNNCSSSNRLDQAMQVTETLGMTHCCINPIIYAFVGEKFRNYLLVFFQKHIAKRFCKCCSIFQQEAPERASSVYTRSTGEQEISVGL

| Binder | % inhibition (cynomolgus CX3CR1) [%] | IC50 (cynomolgus CX3CR1) [nM] | EC50 (human CX3CR1) [nM] | top (human CX3CR1) | binding result (human CCR5) |
| --- | --- | --- | --- | --- | --- |
| B1 | 104 | 1.7 | 0.46 | 28700 | no binding |
| B2 | 104 | 1.8 | 0.63 | 28200 | no binding |
| B3 | 102 | 1.1 | 0.17 | 14600 | no binding |
| B4 | 105 | 1.1 | 0.36 | 50900 | no binding |
| B5 | 107 | 1.8 | 0.22 | 41800 | no binding |
